The data set is described as follows: label from the status in PepcDB records.
In the case of “PDISVAQPASALRYHLRPPRRNDGAAIHQLVSECPPLDLNSLYAYLLLCEHHAHTCVVAESPGGRIDGFVSAYLLPTRPDVLFVWQVAVHSRARGHRLGRAMLGHILERQECRHVRHLETTVGPDNQASRRTFAGLAGERGAHVSEQPFFDRQAFGGADHDDEMLLRIGPFTH”, the protein production entry is “not failed”. For “MDSKQQRIGVIGTGAIGGFYGLMLAHAGHDVHFLLRSEFEAVNRAGLSLNSAVHGFRRLAPVQAYHSAQDMPPCDWLLVGAKTTGNDELAPLIRAAAAPGAKVLLLQNGLGVEERLRPLLPESLHLLGGLCFICVHRGEPGVIEHQAYGGVNLGYHSGPADERRRREIVEEGAALFRESGLESTAMPDLEQARWQKLVWNIPYNGLSVLLKSSTAPLMANADSRSLIEAIMEEVIGAAGACGFILPEGYADQLLAATERMPDYRPSMYHDFAHGRPLELAAIYAAPLARAAAAGYR”, the protein production entry is “failed”. With “MEAVDLAFANYAERFARSCKGDGWRRLVERAIRLYLTPVLGKKALPAINRTDVVSVFDNMPADQVANRRNVFAVLRRLFRWAVSRGDLDRSLEHHHHHH” the entry was “failed”. In the case of “NNELTQFLPRIVTLKKPPGAQLGFNIRGGKASQLGIFISKVIPDSDAHRAGLQEGTXVLAVNDVDFQDIEHSKAVEILKTAREISMRVRFF”, the protein production entry was “not failed”. As for “MDRLKAMQVFVEVADRGSLSAAAMHLGMSRAMVSRYLAELEAWVGVRLLHRTTRRLSLTPAGSETLPRCRRMLEMVGDMREAVAAPDAEPRGLLRVTAAMSFGGAQLAEAVAEFVRRHPAASIDLLLVDRAVNLVEERVDLAVRITNDLDPNLIGRRLADCRSVVCAAPQYLQQHGAPARAEDLSLHNCLTHSYFGRSLWRFERAGEPVEVPVGGNITANETDVLMRAALAGAGIVMLPTYLAAGQIAAGTLRPLLPDCAPPVLGIHGVYVSRKQMPLILRTMLDFLAERFNPAPWDAALEGR”, the entry is “failed”. Turning to “MSRDTERYPVKHANSLWQIYKTVPFWKVVKNFVVIQLARYTPFVSVKNWLYRTFLKMDVGEKTAFALMVMPDIMFPERISVGRNSIIGYNTTILAHEYLIEEYRLGDVIIGDEVMVGANTTILPGVTIGDRAIIAAGTVVHKNVPPGAFVGGNPMQVIKQLEHHHHHH”, the protein production result is listed as “failed”.

In the case of “MSTEQLLVLIAQNDIKDDIVDTLIELEFLSGFSLGNICGFSREHSHFNIKEQVEGYREFCKFEIMHPAAQQAALLTALALVCKHNPCRYWIMPIYQNGTLS”, the protein production result is “not failed”. For the sequence “MRMRRSFPFLAGSALLVVLSAPAVAADGDEGFTIGDSRITESSGLAASRLHPGVYWTHNDSDDGPYLYAVDSRTGKTVATVTLSGVGSPRDVEAISIGPGNEIYVGDIGDNLGGQWDHVWIYELPEPKVLEDQTIRATQYVVKYADGARDAESLMVHPKTGRVYIVDKKEDGGHLYEGPARLSASGTNVFEPLGAVGLWATDAAFSPDGKQLAVRGYFGGIAYTWNGGKIKRQGQLSVPLQRQGESVTYTADGSELMYGSEGADSAVKPGSVPGYSGSGAKSPSGGGGSASAQDGDSDGSHANYKVGALALAVALALGLGVKRLLRRG”, the protein production result was “failed”. Take “MSMKGKETMSNEKIVVGKFGATYGIRGWLKVFSYTDNAESIFDYSPWYINQKGKWVEYKVESWKRHNKGMVAKLEGMDVREDAHLMTNFEIAIDPAVLPELSEDEFYWRELFGMHVVTTKGYDLGVVTDMLETGSNDVLVVKANLKDAFGQKERLIPFLEEQVIIKVDREAQRIEVDWDPGFLEHHHHHH”: the protein production result is on record as “not failed”. For “MSAPAPRSPAGGHEARATARALTLLAIGAGFGFLWLARDLLVPTALGVTLALSVHPVVAALQRRRVSRTVASVAGTLLAVAVLVGIGYVLWGRIAAFADELPGYEGRLREAAAGIRRHAAHLQAQSEQLVQAPRRPGEVKVQEGVPWGSLLVGTAQGALTFAGQATVVVFVLYFTLAEGPRFRTKLLAWADRRPRGRARVLAALEELHRDVEQYMLNRVALNAALGVVTWAVYALYGLEHAAIWGITTALLHFIPYVGPALGLFLPAAMALLQYGTAKDVALVTAIYLVLVNVQGNVVDPLFLGKQLRLSPLVVFLGSLFWFWLWGPVGLFLAVPLLSTVRIVCRHLPRYRVVASLLAE”, the protein production result was “failed”. As to “MTFSNQLTILRIILVPVFVLLLMQDSAWYRLLGVIVFVTASLTDIYDGYHARKYGEVTRLGAFLDPLADKLLITTAFLFYVWEGYLALWMVLLVAARDIVVTGLRVYAEHIDHPVVTSKEAKYKTFAQNLFAYVIMLFILLKEKSFFGPKMAAFMEVILHSPWLGYAMFAITLFTVWTGVSYLISNRRLIFRNSAGGR”, the protein production entry is listed as “not failed”. As for “MKVAILGAGCYRTHAASGITNFSRASQVAKEAGIPEIAMTHSTITMGAELLHLIPEITEVVVSDPCFAEEPGMVVLDQFDYKAVMEAHLAGDAEKVMPEIREAVKAKAKETPKPPKGCIHFVHPETVGLKVTASDVEAVKDADIVITWLPKGGSQPAIIEKFASEIKKGAIVTHACTIPTPKFAKIFKDLGRDDLNIIAYHPGAVPEMKGQAFLSEGLADAEKVEEFYCMAKTARGEAFKMPANLISPVCDMGSAVTAPVYAAILAYRDAVTQILGAPADFAQMMADEAISQILDLMRNEGIKNMEDKLNPKALTGTADSMCFGPLADILPASLKVLEKHANENKCECGCSIKP”, the entry is “failed”. With “MMPKRFNTSGFDTTLRLPSYYGFLHLTQSLTLNSRVFYGARHVTPPAIRIGSNPVQSLLLFRAPTQLTGWNRSSRDLLGRRVSFSDRSDGVDLLSSSPILSTNPNLDDSLTVIALPLPHKPLIPGFYMPIHVKDPKVLAALQESTRQQSPYVGAFLLKDCASTDSSSRSETEDNVVEKFKVKGKPKKKRRKELLNRIHQVGTLAQISSIQGEQVILVGRRRLIIEEMVSEDPLTVRVDHLKDKPYDKDNAVIKASYVEVISTLREVLKTNSLWRDQDIGDFSYQHLADFGAGISGANKHKNQGVLTELDVHKRLELTLELVKKQVEINKIKETDDGSSLSAKIRVRIDTKRDKIPKHVIKVMEEEFTKLEMLEENYSDFDLTYNYLHWLTVLPWGNFSYENFDVLRAKKILDEDHYGLSDVKERILEFIAVGRLRGTSQGKIICLSGPPGVGKTSIGRSIARALDRKFFRFSVGGLSDVAEIKGHCQTYVGAMPGKMVQCLKSVGTANPLILFDEIDKLGRCHTGDPASALLEVMDPEQNAKFLDHFLNVTIDLSKVLFVCTANVIEMIPGPLLDRMEVIDLSGYVTDEKMHIARDYLVKKTCRDCGIKPEHVDLSDAALLSLIENYCREAGVRNLQKQIEKIYRKVALELVRQGAVSFDVTDTKDTKSLAKTDSEVKRMKVADIMKILESATGDSTESKTKQSGLVAKTFEKVMIDESNLADYVGKPVFQEEKIYEQTPVGVVMGLAWTSMGGSTLYIETTFVEEGLGKGGLHITGQLGDVMKESAQIAHTVARRIMFEKEPENLFFANSKLHLHVPEGATPKDGPSAGCTMITSFLSLAMKKLVRKDLAMTGEVTLTGRILPIGGVKEKTIAARRSQIKTIIFPEANRRDFEELAENMKEGLDVHFVDEYEKIFDLAFNYDH” the entry was “failed”; with “MPTLLMITPENLEIKRFRAYQLNNFMQLTMPYLAGFVPKEYDIRLLDEHTEPIIFEKFDLVAITVNTPNAPYAYAISKKFRELGSWVALGGPHVTLNPEEAALHCDTIFIGEAEETWPQFLNDFLCKKAQKVYTSSRAPSLAGLPIPRRDLIVGNRFISGAVFASRGCPHNCSYCSLKKIYHNTFRTRPVDEVIKDIASMPNKYFVFWDDNFFADPSYTKALLKDLAKLNKKWAAQVTAHSCEDEELLRLAKSAGCLYLFLGLESFSEQGLKDANKSFNKIEQYGKIADKLHRHGISIQAGIVFGFDSDTPDVFETTLKACNDIGIDGVTASILTPFPGTGIYDQYKNEGRLLDVGWNYYNGKTRVAYVPKQMSPEELLNGYNEFRRKFYSWKSIIKRICKSRVNIFYNLAMNYGYRQAYRNFAKLDIGDSKGMNIFEQLI”, “failed”. Regarding “MDTDNNLTFVDFYYRWLEITKLDIINDTSYKRYITAIKAFKDCFGNKLISDIDSLSYQKFLKDYGRGHFLNNGQLRPRTSNTVSKMNNCLKQAFESAVEQGYIKKNLEHHHHHH”, the protein production entry is “failed”.

For the sequence “MEFEVEYDILVIVLVAFYILAATRIAHVIGLPPGVVEIIMGAMLAFWGVKSTEVLTLLAAIGANLLLFMAGSEIDLALLRSILPQAVIVALVSALAPLALTALLHVYLGLSLTSSLVILASLSATSVALTYLLLSSYRLVRSRLGQLALASAMLLDLSGMIMLNIATASISPSLAFYIVILLAALLLYPLLPRLGGAPFEAEIRLITMTVIILGFLSDFVGVHSVLTSFILGVIASETVRTRVQLREKLESLATGFFTPFFFIASGMSIDPGIPLHYVALALAGGVALALARTYTVYFYFRLTGSSRRSSLIAASSTAMLLTVTIIAASVGFQLGLLDSLMYSVLVWIVVGTILGSFALVKMR”, the protein production result is on record as “failed”.

With “MAGWGIRSITGTSKLRAAMLLVVVGLLSVSGWLQRLDWLVYDEIISRQSFQPDSDIVIVAIDEESLRTIGKWPWSRELHAGLIDRLSQIGSNVVALDLLLSEPDVDHPEADKRLKTAIFTHGNVVLPVAPAQNASGDRFSLIQPLASLQRRATLGHVDVELDRDGVARRTFLYAGIDIPAFPALGLALADKGSLPNRMRLLSRMPEADKTIVNTGNSWVRSREIMVPFAGPPGTYPRISYARLLNDDDLLDDLRGKIIIVGMTATGLQQGFLTPVSLTRHNYMSGVEWHASVVDMLRNGRSIYPVPEMVAIAVTVLWVLAVLLVVNIVPGRFRSLVLLVSLAAGIGLVTMLLGVFHIWLPPGVALIGTLAVYPLQSWQRINEFIQSQFITGSCLQAVFDSVQEGVITVDAKGNILYLNQESERILGARSEQLIGKPLEQLIGVCLIPDKQDRDVNGSGSADTRPDSRIQHCVLTLPSGDRRTIRVTHRALYDRWRIPAGAVVTISDISDTLEMKQQIARQANYDVLTMLPSRNFLLSRFGELAVSARQHGAALIVCLVSVDNFSKINDAFGYHSGDALLKMIADRLLKLVCSEDLIARWSGDEFMLVVDRPVREGQELQFARKVQETINRRFEINGQEVFISASIGIRISSQPDQVDEKSEIFLDEAVSAMRRVKRQGGNGFQFYASGQMNAWTREQLEFERDFRLAIENQDKALHVLFQPIVDVQQKRVVHNEVLVRWAHPTRGLLSPGDFIPLAERVGLIGQLGDLVLWISCRIAADLAKVGQAVDISVNVASRQLLHPDFLQKVAGVLERTGLPAGRLMLEITESAVISDLPRAAEALVRLKALGVAIALDDFGTGYSSLSLLRELPLDILKIDKSFIQGIEQDHPGDEKFDFAIARAIIALGDNLGLGVIAEGVETEKHMEFLRKHHCYLQQGYYFSRPLSTTQLMQFMGRPDSIRV”, the protein production entry is listed as “failed”.

These data come from a protein production outcome set (Wang et al. 2014).
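Also: failed if final PepcDB status was selected cloned or expressed and not failed if soluble or beyond.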
